In paper PMC11744834, “Allelic variation in an expansin, MdEXP-A1, contributes to flesh firmness at harvest in apples”:

Target: T1, MdNAC1 (Malus domestica? (apple), UniProt D9ZJ87 1-280)
T1 sequence: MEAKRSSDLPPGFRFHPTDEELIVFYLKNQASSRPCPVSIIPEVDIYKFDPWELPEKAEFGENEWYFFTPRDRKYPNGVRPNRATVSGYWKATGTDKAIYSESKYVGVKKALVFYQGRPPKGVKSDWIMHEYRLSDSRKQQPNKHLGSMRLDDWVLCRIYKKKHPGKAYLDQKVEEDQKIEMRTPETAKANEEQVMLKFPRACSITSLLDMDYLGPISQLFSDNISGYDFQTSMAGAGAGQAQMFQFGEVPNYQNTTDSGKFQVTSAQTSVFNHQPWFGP
Assay: EMSA; Chemiluminescent EMSA Kit (GS009, Beyotime); cold competitor 50x; buffer, salt, pH and temperature not stated
Details: protein: recombinant; tags: GST (pGEX-6p-1); chain copies: 2; label: biotin; blunt

B1: MdEXP-A1-P1 binding probe (dsDNA)
DNA 1: TACATGCAAAATAATTTACCTACGTAATAAATAATAAATATTGTT
DNA 2: AACAATATTTATTATTTATTACGTAGGTAAATTATTTTGCATGTA
  binding result: binds

B2: MdEXP-A1-P2 binding probe (dsDNA)
DNA 1: TAACAACAAAATGTGCCTAACGTATACATGCAAAATAATTTACCT
DNA 2: AGGTAAATTATTTTGCATGTATACGTTAGGCACATTTTGTTGTTA
  binding result: binds
